# Reference: patent US20050042624A1, “Tumor antigen” (Kyogo ITOH, priority 2001, published 2005)
# Legend:
# [1] = tested on: OK-CTLd; experiment: IFN-γ production from OK-CTLd against COS-7 cells co-transfected with cDNA clone and HLA-A0207 (ELISA); assay type: cell-based, human
# Protocol: Cryopreserved OK-CTLd was cultured in the presence of 100 U/ml of IL-2 for 2 weeks or more to use in the experiments.
# A cDNA library of SW620 cells was pooled so that each pool contained 100 clones, and 200 ng of the cDNA pooled in each well and 200 ng of the HLA-A0207 cDNA were mixed in 100 ul of lipofectoamine (Invitrogen Corp.)/Opti-MEM (Invitrogen Corp.) 1:200 mixture for 30 min. 50 μl of the obtained mixture was added to a simian kidney cell line COS-7 (1×10^4), and incubated for 6 h for co-transduction. Then, RPMI-1640 culture medium containing 10% FCS was added to and culturing was carried out for 2 days, followed by addition of OK-CTLd (2×10^5) to each well. After a further 18 h incubation, 100 μl of the supernatant was collected, and IFN-γ production was measured by ELISA. In this case, as a negative control, using COS-7 cells into which the gene had not been transfected as a target, IFN-γ production from OK-CTLd was examined and the value of IFN-γ produced was subtracted as a background from that of each measurement.
# A pool of cDNA library was screened with the criteria in which cDNA capable of enhancing IFN-γ production from OK-CTLd was judged as a positive one having CTL-activating ability. […]
# [2] = tested on: KE4-CTL; experiment: IFN-γ production from KE4-CTL against VA13 cells co-transfected with cDNA clone and HLA-A2601; assay type: cell-based, human
# Excerpt: A gene encoding a tumor antigen recognized by KE4-CTL was isolated/identified from a human esophageal cancer cell line KE4 according to a known method [J. Exp. Med., 187: 277-288, 1998.] First of all, poly (A) ^+RNA of KE4 cells was converted to cDNA, ligated with a SalI adaptor so as to insert into the expression vector pSV-SPORT-1 (Invitrogen Corp.). Moreover, cDNA of HLA-A2601 was obtained by the reverse transcription-polymerase chain reaction (RT-PCR) and cloned into the eukaryotic cell expression vector pCR3 (Invitrogen Corp.).
# A cDNA library of KE4 cells was pooled so that each pool contained 100 clones, and 200 ng of the cDNA pooled in each well and 200 ng of the HLA-A2601cDNA were mixed in 100 μl of lipofectoamine (Invitrogen Corp.)/Opti-MEM (Invitrogen Corp.) 1:200 mixture for 30 min. 50 μl of the obtained mixture was added to VA13 cells (1×10^4), and incubated for 6 h for co-transduction. Then, RPMI-1640 culture medium containing 10% FCS was added thereto and culturing was carried out for 2 days, followed by addition of KE4-CTL (2×10^5) to each well. After a further 18 h incubation, 100 μl of the supernatant was collected, and IFN-γ production was measured by ELISA.
# A pool of cDNA library was screened with the criteria in which cDNA capable of enhancing IFN-γ production from KE4-CTL was judged as a positive one having CTL-activating ability. […]
Molecule,"recognition of cDNA clone by OK-CTLd, enhancement of IFN-γ production [1]","recognition of cDNA clone by KE4-CTL, enhancement of IFN-γ production [2]"
"SW620-cl.48: cDNA clone from SW620 encoding SW620-48-PP (nucleic acid, listed as Homo sapiens) DNA: CCTTTCCAAGGGAGTGGTTGTGTGATCGCCATCTTAGGGAAAAGATGTTCTCGTCCGTGGCGCACCTGGCGCGGGCGAACCCCTTCAACACGCCACATCTGCAGCTGGTGCACGATGGTCTCGGGGACCTCCGCAGCAGCTCCCCAGGGCCCACGGGCCAGCCCCGCCGCCCTCGCAACCTGGCAGCCGCCGCCGTGGAAGAGTACAGTTGTGAATTTGGCTCCGCGAAGTATTATGCACTGTGTGGCTTTGGTGGGGTCTTAAGTTGTGGTCTGACACACACTGCTGTGGTTCCCCTGGATTTAGTGAAATGCCGTATGCAGGTGGACCCCCAAAAGTACAAGGGCATATTTAACGGATTCTCAGTTACACTTAAAGAGGATGGTGTTCGTGGTTTGGCTAAAGGATGGGCTCCGACTTTCCTTGGCTACTCCATGCAGGGACTCTGCAAGTTTGGCTTTTATGAAGTCTTTAAAGTCTTGTATAGCAATATGCTTGGAGAGGAGAATACTTATCTCTGGCGCACATCACTATATTTGGCTGCCTCTGCCAGTGCTGAATTCTTTGCTGACATTGCCCTGGCTCCTATGGAAGCTGCTAAGGTTCGAATTCAAACCCAGCCAGGTTATGCCAACACTTTGAGGGATGCAGCTCCCAAAATGTATAAGGAAGAAGGCCTAAAAGCATTCTACAAGGGGGTTGCTCCTCTCTGGATGAGACAGATACCATACACCATGATGAAGTTCGCCTGCTTTGAACGTACTGTTGAAGCACTGTACAAGTTTGTGGTTCCTAAGCCCCGCAGTGAATGTTCAAAGCCAGAGCAGCTGGTTGTAACATTTGTAGCAGGTTACATAGCTGGAGTCTTTTGTGCAATTGTTTCTCACCCTGCTGATTCTGTGGTATCTGTGTTGAATAAAGAAAAAGGTAGCAGTGCTTCTCTGGTCCTCAAGAGACTTGGATTTAAAGGTGTATGGAAGGGACTGTTTGCCCGTATCATCATGATTGGTACCCTGACTGCACTACAGTGGTTTATCTATGACTCCGTGAAGGTCTACTTCAGACTTCCTCGCCCTCCTCCACCCGAGATGCCAGAGTCTCTGAAGAAGAAGCTTGGGTTAACTCAGTAGTTAGATCAAAGCAAATGTGGACTGAATCTGCTTGTTGATCAGTGTTGAAGAAAGTGCAAAAGGAACTTTTATATATTTGACAGTGTAGGAAATTGTCTATTCCTGATATAATTACTGTAGTACTCTTGCTTAAGGCAAGAGTTTCAGATTTACTGTTGAAATAAACCCAACTCTTCATGAAAAAAAAAAAAAAA",recognized by OK-CTLd in an HLA-A2-restricted manner and in a dose dependent manner of plasmid,–
"KE4-cl.18: cDNA clone from esophageal cancer cell line KE4 encoding KE4-18-PP (nucleic acid, listed as Homo sapiens) DNA: GGGGCCGGGGCCGAGGCCGCGGAGCTCGCGGAGGCAAGGCCGAGGATAAGGAGTGGATGCCCGTCACCAAGTTGGGCCGCTTGGTCAAGGACATGAAGATCAAGTCCCTGGAGGAGATCTATCTCTTCTCCCTGCCCATTAAGGAATCAGAGATCATTGATTTCTTCCTGGGGGCCTCTCTCAAGGATGAGGTTTTGAAGATTATGCCAGTGCAGAAGCAGACCCGTGCCGGCCAGCGCACCAGGTTCAAGGCATTTGTTGCTATCGGGGACTACAATGGCCACGTCGGTCTGGGTGTTAAGTGCTCCAAGGAGGTGGCCACCGCCATCCGTGGGGCCATCATCCTGGCCAAGCTCTCCATCGTCCCCGTGCGCAGAGGCTACTGGGGGAACAAGATCGGCAAGCCCCACACTGTCCCTTGCAAGGTGACAGGCCGCTGCGGCTCTGTGCTGGTACGCCTCATCCCTGCACCCAGGGGCACTGGCATCGTCTCCGCACCTGTGCCTAAGAAGCTGCTCATGATGGCTGGTATCGATGACTGCTACACCTCAGCCCGGGGCTGCACTGCCACCCTGGGCAACTTCGCCAAGGCCACCTTTGATGCCATTTCTAAGACCTACAGCTACCTGACCCCCGACCTCTGGAAGGAGACTGTATTCACCAAGTCTCCCTATCAGGAGTTCACTGACCACCTCGTCAAGACCCACACCAGAGTCTCCGTGCAGCGGACTCAGGCTCCAGCTGTGGCTACAACATAGGGTTTTTATACAAGAAAAATAAAGTGAATTTAGCGTGAAAAAAAAAAAAAAAAAAAAAAAAAA",–,recognized by KE4-CTL in an HLA-A26-restricted manner and in a dose dependent manner of plasmid
